From patent US20210355194A1 (TWIST BIOSCIENCE, published 2021)
Numbering of substitutions follows the chain as printed.

B1: SARS-CoV-2 variant 1-32 (antibody, V domains shown)
VH: EVQLLESGGGLVQPGGSLRLSCAASGFTFSSYAMYWVRQAPGKGLEWVSAISGSGGSTFYADSVKGRFTISRDNSKNTLYLQMNSLRAEDTAVYYCTRPPYGDYGDYWGQGTLVTVSS
VL: QSALTQPASVSGSPGQSITISCTGTSSDVGGYNLVSWYQQHPGKAPKLMIYEGNKRPSGVSNRFSGSKSGNTASLTISGLQAEDEADYYCCSYAGSSTFPVVFGGGTKLTVL
B2: SARS-CoV-2 variant 1-4 (antibody, V domains shown)
VH: EVQLLESGGGLVQPGGSLRLSCAASGFTFSSQAMSWVRQAPGKGLEWVSAISGSGGGTYYADSVKGRFTISRDNSKNTLYLQMNSLRAEDTAVYYCAKDRRFGEFDPWGQGTLVTVSS
VL: QSALTQPASVSGSPGQSITISCTGTSSDVGTYNLVSWYQQHPGKAPKLMIYEGSQRPSGVSNRFSGSKSGNTASLTISGLQAEDEADYYCCSYAGSSSFVVFGGGTKLTVL
B3: SARS-CoV-2 variant 1-5 (antibody, V domains shown)
VH: B2 VH
VL: B2 VL with D28G, T31S, G53A, Q55K, S97Y, S98T, V100A
B4: SARS-CoV-2 variant 1-3 (antibody, V domains shown)
VH: B2 VH
VL: B2 VL with T25I, T31S, S54T, Q55K
B5: SARS-CoV-2 variant 1-30 (antibody, V domains shown)
VH: B1 VH with Y35T
VL: B2 VL with S27R, T31S, S54T, Q55K, S97R, S98T, F99P
B6: SARS-CoV-2 variant 1-31 (antibody, V domains shown)
VH: B1 VH with Y35N
VL: B2 VL with T31K, S97R, S98T, F99P
B7: SARS-CoV-2 variant 1-28 (antibody, V domains shown)
VH: EVQLLESGGGLVQPGGSLRLSCAASGFTFSSYGMSWVRQAPGKGLEWVSAISGSGGGTYYADSVKGRFTISRDNSKNTLYLQMNSLRAEDTAVYYCASSSSWQFDYWGQGTLVTVSS
VL: B2 VL with D28G, T31S, S98T, F99H, V100Y
B8: SARS-CoV-2 variant 1-49 (antibody, V domains shown)
VH: EVQLLESGGGLVQPGGSLRLSCAASGFTFSSYAMYWVRQAPGKGLEWVSAISGSAGSTYYADSVKGRFTISRDNSKNTLYLQMNSLRAEDTAVYYCARDTNDFWGQGTLVTVSS
VL: QSALTQPASVSGSPGQSITISCTGTSSDIGSYNLVSWYQQHPGKAPKLMIYEGTKRPSGVSNRFSGSKSGNTASLTISGLQAEDEADYYCCSYAGSRTYVFGGGTKLTVL
B9: variant 6-85 (Fc fusion)
VHH: EVQLVESGGGLVQPGGSLRLSCAASGGTFSVFAMGWFRQAPGKEREFVSAINWSGGSLLYADSVKGRFTISADNSKNTAYLQMNSLKPEDTAVYYCALFGDFDYWGQGTLVTVSS
B10: variant 6-3 (Fc fusion)
VHH: EVQLVESGGGLVQPGGSLRLSCAASGFTFSPSWMGWFRQAPGKEREFVATINEYGGRNYADSVKGRFTISADNSKNTAYLQMNSLKPEDTAVYYCARVDRDFDYWGQGTLVTVSS
B11: variant 6-26 (Fc fusion)
VHH: B10 VHH with F27D, P31T, E53T, Y54G, R57T, D99T, R100T, D101S
B12: variant 6-76 (Fc fusion)
VHH: EVQLVESGGGLVQPGGSLRLSCAASGLAFDFDGMGWFRQAPGKEREGVAAINSGGSTYYADSVKGRFTISADNSKNTAYLQMNSLKPEDTAVYYCARFFRAHDYWGQGTLVTVSS
B13: variant 6-60 (Fc fusion)
VHH: EVQLVESGGGLVQPGGSLRLSCAASGDTYGSYWMGWFRQAPGKEREFVATISQSGAATAYADSVKGRFTISADNSKNTAYLQMNSLKPEDTAVYYCAGLLRYSGTYYDAFDVWGQGTLVTVSS
B14: variant 6-73 (Fc fusion)
VHH: EVQLVESGGGLVQPGGSLRLSCAASGHTFSGYAMGWFRQAPGKEREFVAVITREGSTYYADSVKGRFTISADNSKNTAYLQMNSLKPEDTAVYYCARLGGEGFDYWGQGTLVTVSS
B15: variant 5-20 (Fc fusion)
VHH: EVQLVESGGGLVQPGGSLRLSCAASGRTIVPYTMGWFRQAPGKERELVAAISPSAFTEYADSVKGRFTISADNSKNTAYLQMNSLKPEDTAVYYCAARRWGYDWGQGTLVTVSS
B16: variant 6-55 (Fc fusion)
VHH: EVQLVESGGGLVQPGGSLRLSCAASGFTMSSSWMGWFRQAPGKEREFVARITSGGSTGYADSVKGRFTISADNSKNTAYLQMNSLKPEDTAVYYCASVDGYFDYWGQGTLVTVSS
B17: variant 6-20 (Fc fusion)
VHH: EVQLVESGGGLVQPGGSLRLSCAASGSTLPYHAMGWFRQAPGKEREFVAAITWNGASTSYADSVKGRFTISADNSKNTAYLQMNSLKPEDTAVYYCARDRYYDTSASYFESETWGQGTLVTVSS
B18: variant 6-63 (Fc fusion)
VHH: EVQLVESGGGLVQPGGSLRLSCAASGQTFNMGWFRQAPGKEREFVAAIGSGGSTSYADSVKGRFTISADNSKNTAYLQMNSLKPEDTAVYYCWRLGNDYFDYWGQGTLVTVSS
notes: also called VHH nanobody 6-63
B19: variant 6-78 (Fc fusion)
VHH: EVQLVESGGGLVQPGGSLRLSCAASGRTYDAMGWFRQAPGKEREFVASVTSGGYTHYADSVKGRFTISADNSKNTAYLQMNSLKPEDTAVYYCAKFGRKIVGATELDYWGQGTLVTVSS
B20: variant 5-1 (Fc fusion)
VHH: EVQLVESGGGLVQPGGSLRLSCAASGGTFSSIGMGWFRQAPGKEREFVAAISWDGGATAYADSVKGRFTISADNSKNTAYLQMNSLKPEDTAVYYCAKEDVGKPFDWGQGTLVTVSS
B21: variant 5-34 (Fc fusion)
VHH: EVQLVESGGGLVQPGGSLRLSCAASGRTFSRYIMGWFRQAPGKEREFVAAISWSGGDNTYYADSVKGRFTISADNSKNTAYLQMNSLKPEDTAVYYCAAYRIVVGGTSPGDWRWGQGTLVTVSS
B22: variant 5-37 (Fc fusion)
VHH: EVQLVESGGGLVQPGGSLRLSCAASGSTFSINAMGWFRQAPGKEREFVGGISRSGATTNYADSVKGRFTISADNSKNTAYLQMNSLKPEDTAVYYCAADGVPEYSDYASGPVWGQGTLVTVSS

target: T1, S1 Fc fusion protein (SARS-CoV-2, UniProt P0DTC2 14-685); test: phage ELISA

Binder | ELISA fold over background [fold]
B1 | 4
B2 | 0.9
B3 | 1.2
B4 | 1.5
B5 | 5.6
B6 | 15.7
B7 | 1.1
B8 | 0.8

target: T2, COVID S1 RBM Fc fusion (Antigen 2) (SARS-CoV-2, UniProt P0DTC2 437-508); test: phage ELISA

Binder | ELISA fold over background [fold]
B1 | 1.1
B2 | 1.1
B3 | 1.4
B4 | 1.5
B5 | 1.4
B6 | 1.2
B7 | 1.2
B8 | 0.8

target: T1, S1 Fc fusion protein; test: phage ELISA; remark: another data set of the same source

Binder | ELISA fold over background [fold]
B1 | 4
B2 | 0.9
B3 | 1.2
B4 | 1.5
B5 | 5.6
B6 | 15.7
B7 | 1.1
B8 | 0.8

target: T2, COVID S1 RBM Fc fusion (Antigen 2); test: phage ELISA; remark: another data set of the same source

Binder | ELISA fold over background [fold]
B1 | 1.1
B2 | 1.1
B3 | 1.4
B4 | 1.5
B5 | 1.4
B6 | 1.2
B7 | 1.2
B8 | 0.8

target: T3, SARS-CoV-2 spike on live SARS-CoV-2 virus (SARS-CoV-2, UniProt P0DTC2 14-1273); test: cell-based or functional assay

Binder | EC50 [µg/mL]
B9 | 0.84
B10 | 0.06
B11 | 2.97
B12 | 1.08
B13 | 0.15
B14 | 1.46
B15 | 0.27
B16 | 0.21
B17 | 5.03
B18 | 0.06
B19 | 8.26
B20 | 0.1
B21 | 0.54

target: SARS-CoV-2 spike on VSV-pseudotype SARS-CoV-2 (SARS-CoV-2, UniProt P0DTC2 14-1273); test: cell-based or functional assay

Binder | NC50 [µg/mL]
B9 | 0.84
B10 | 0.06
B11 | 2.97
B12 | 1.08
B13 | 0.15
B14 | 1.46
B15 | 0.27
B16 | 0.21
B17 | 5.03
B18 | 0.06
B19 | 8.26
B20 | 0.1
B21 | 0.54

target: T3, SARS-CoV-2 spike on live SARS-CoV-2 …; test: cell-based or functional assay; remark: another data set of the same source

Binder | PRNT90 [ng/mL]
B9 | 62.5
B10 | < 0.98
B11 | 62.5
B12 | 3.9
B13 | < 0.98
B14 | 250
B15 | 3.9
B16 | 62.5
B17 | 15.6
B18 | 3.9
B19 | 250
B20 | 15.6
B21 | 15.6

target: T3, SARS-CoV-2 spike on live SARS-CoV-2 …; test: cell-based or functional assay; remark: another data set of the same source

Binder | EC80 [µg/mL]
B9 | 1.06
B10 | 0.115
B11 | 3.61
B12 | 0.426
B13 | 0.237
B14 | 2.02
B15 | 0.376
B16 | 0.445
B22 | 12.4
B17 | 2.31
B18 | 0.0579
B19 | 13.8
B20 | 0.811
B21 | 0.57
